From paper doi:10.1101/2021.04.20.440599, “Structures of a deAMPylation complex rationalise the switch between antagonistic catalytic activities of FICD (14/96/109)” (bioRxiv, 2021)

Key:
[1] = molecular target: T1, lid-truncated BiP^T229A-V461F-AMP (residues 27-549) (Chinese hamster, UniProt G3I8R9 27-549, T229A | V461F, AMP covalently attached to Thr518 (Thr518-AMP)); test: crystal structure; heterodimer of FICD^L258D-H363A and lid-truncated BiP-AMP copurified by SEC in TNKMT buffer (mixed 1.5:1 with 250 uM ATP, 50 mM KCl, 2 mM MgCl2); sitting drop at 25 °C; state 1: 0.1 M MES pH 6.5, 10% PEG 4000, 0.2 M NaCl; state 2: 0.1 M Tris pH 8.0, 25% PEG 400; settings: both partners purified
T1 construct: BiP, Chinese hamster, residues 27-549 (all of the SBD-alpha lid removed but helix A); in the expressed range hamster and human BiP are identical; also called lid-truncated BiP-AMP; AMPylated BiP; source: E. coli, purified (Ni-NTA, on-bead Ulp1 cleavage, anion exchange, gel filtration); AMPylated in vitro with GST-TEV-FICD^E234G; not shown: His6-Smt3, N-terminal, cleaved
T1 sequence (G3I8R9 27-549 T229A/V461F): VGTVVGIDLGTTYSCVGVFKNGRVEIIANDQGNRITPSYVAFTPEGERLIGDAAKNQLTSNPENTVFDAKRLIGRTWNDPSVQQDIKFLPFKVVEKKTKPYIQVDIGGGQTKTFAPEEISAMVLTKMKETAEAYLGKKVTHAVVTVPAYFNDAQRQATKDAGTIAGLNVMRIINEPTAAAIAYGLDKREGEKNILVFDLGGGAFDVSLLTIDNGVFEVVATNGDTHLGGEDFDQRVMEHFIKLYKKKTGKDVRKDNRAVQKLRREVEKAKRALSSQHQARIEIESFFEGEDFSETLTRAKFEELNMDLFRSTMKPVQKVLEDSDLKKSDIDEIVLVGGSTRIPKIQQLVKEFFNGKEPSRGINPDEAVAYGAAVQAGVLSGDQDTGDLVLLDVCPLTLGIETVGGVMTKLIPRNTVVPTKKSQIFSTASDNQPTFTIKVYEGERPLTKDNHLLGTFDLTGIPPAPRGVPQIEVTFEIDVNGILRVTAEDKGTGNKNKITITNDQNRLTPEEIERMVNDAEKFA

[2] = molecular target: T2, biotinylated-AviTag-haBiP^T229A-V461F, unmodified, ATP-bound (Chinese hamster, UniProt G3I8R9 27-635, T229A | V461F, biotin on the N-terminal Avi-tag); test: BLI; biotinylated Avi-tagged BiP (AMPylated or unmodified) on streptavidin biosensors, activated in 2 mM ATP; apo FICD variants (all H363A) as analytes at 50 nM unless otherwise specified; HKM with 0.05% Triton X-100, 30 °C; second dissociation step with 2 mM ATP; settings: both partners purified
T2 construct: GS linker between the avi-tag and BiP; BiP, Chinese hamster, residues 27-635; Immobilised BLI ligand; The in vitro AMPylation assay used untagged BiP^T229A-V461F (UK2521); also called BiP:ATP; unmodified BiP; source: E. coli, purified; biotinylated in vitro, made apo, then loaded with 2 mM ATP on the sensor; not shown: His6-Smt3, N-terminal, cleaved; Avi-tag (biotinylated), N-terminal, kept
T2 sequence (G3I8R9 other isoform, or with tags, fused parts or gaps T229A | V461F | T229A | V461F | T229A V461F T229A V461F): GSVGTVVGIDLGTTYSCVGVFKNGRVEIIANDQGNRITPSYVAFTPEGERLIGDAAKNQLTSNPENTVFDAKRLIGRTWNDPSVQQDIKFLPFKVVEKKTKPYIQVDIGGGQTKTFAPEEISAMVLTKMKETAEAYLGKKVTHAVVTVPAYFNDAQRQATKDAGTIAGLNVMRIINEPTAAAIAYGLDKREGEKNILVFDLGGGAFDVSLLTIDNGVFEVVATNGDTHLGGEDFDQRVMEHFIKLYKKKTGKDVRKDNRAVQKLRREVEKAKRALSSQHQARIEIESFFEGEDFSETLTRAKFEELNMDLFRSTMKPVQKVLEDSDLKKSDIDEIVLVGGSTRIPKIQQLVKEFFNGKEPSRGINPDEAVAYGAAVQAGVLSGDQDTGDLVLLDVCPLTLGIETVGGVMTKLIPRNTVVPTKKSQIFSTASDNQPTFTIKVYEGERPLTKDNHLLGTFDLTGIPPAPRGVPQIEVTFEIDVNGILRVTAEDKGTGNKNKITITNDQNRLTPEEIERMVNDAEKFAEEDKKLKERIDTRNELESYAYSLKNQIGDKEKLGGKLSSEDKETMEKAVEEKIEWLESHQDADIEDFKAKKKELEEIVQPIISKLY

[3] = molecular target: T3, AMPylated biotinylated-AviTag-haBiP^T229A-V461F (Chinese hamster, UniProt G3I8R9 27-635, T229A | V461F, AMP covalently attached to Thr518; biotin on the N-terminal Avi-tag); test: as above; settings: both partners purified
T3 construct: GS linker between the avi-tag and BiP; BiP, Chinese hamster, residues 27-635; Immobilised BLI ligand; also called BiP-AMP; immobilised AMPylated BiP; source: E. coli, purified; AMPylated in vitro, biotinylated in vitro, made apo, then loaded with 2 mM ATP on the sensor; not shown: His6-Smt3, N-terminal, cleaved; Avi-tag (biotinylated), N-terminal, kept
T3 sequence (G3I8R9 other isoform, or with tags, fused parts or gaps T229A | V461F | T229A | V461F | T229A V461F T229A V461F): as above

[4] = molecular target: the molecule itself; test: contrast variation small angle neutron scattering (SANS); complexes of partially deuterated and non-deuterated dimeric FICD^H363A and full-length BiP-AMP copurified by SEC (1.25:1 BiP-AMP:FICD, 250 uM ATP) into TNKMT(0.2) buffers of varying D2O content; 4.3-5.5 mg/ml, 12 °C
[5] = molecular target: T4, BiP^T229A-V461F-AMP (residues 27-635) (Chinese hamster, UniProt G3I8R9 27-635, T229A | V461F, AMP covalently attached to Thr518); test: as above; settings: both partners purified
T4 construct: BiP, Chinese hamster, residues 27-635 ('full-length': complete structured region; lacks the acidic N-terminal region and the C-terminal region with KDEL); The deAMPylation assays used BiP^T229A-V461F (UK2521) AMPylated in vitro, with a trace of AMP(FAM)-labelled probe; also called full-length BiP-AMP; full-length AMPylated BiP; source: E. coli, purified; AMPylated in vitro with …
T4 sequence (G3I8R9 27-635 T229A/V461F): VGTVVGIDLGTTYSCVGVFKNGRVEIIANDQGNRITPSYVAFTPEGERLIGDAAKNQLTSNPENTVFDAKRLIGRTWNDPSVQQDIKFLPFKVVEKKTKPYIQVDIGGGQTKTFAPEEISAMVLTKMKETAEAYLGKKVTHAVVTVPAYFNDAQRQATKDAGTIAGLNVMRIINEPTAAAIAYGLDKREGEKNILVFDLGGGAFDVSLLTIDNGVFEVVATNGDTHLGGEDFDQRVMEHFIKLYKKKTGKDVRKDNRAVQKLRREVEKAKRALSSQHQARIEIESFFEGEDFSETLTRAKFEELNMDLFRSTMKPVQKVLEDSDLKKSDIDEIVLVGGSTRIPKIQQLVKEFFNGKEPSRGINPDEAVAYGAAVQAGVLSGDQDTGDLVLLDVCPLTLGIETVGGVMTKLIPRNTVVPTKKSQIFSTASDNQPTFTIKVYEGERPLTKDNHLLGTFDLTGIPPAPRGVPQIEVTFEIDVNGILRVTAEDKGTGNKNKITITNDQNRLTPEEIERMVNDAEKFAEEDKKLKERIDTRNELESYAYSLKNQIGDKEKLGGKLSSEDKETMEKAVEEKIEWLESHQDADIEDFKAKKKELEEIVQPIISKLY

B1: FICD^L258D-H363A (residues 104-445) (enzyme, human, UniProt Q9BVA6 104-445, looked up)
chain: LEARAALNQALEMKRQGKREKAQKLFMHALKMDPDFVDALTEFGIFSEEDKDIIQADYLYTRALTISPYHEKALVNRDRTLPLVEEIDQRYFSIIDSKVKKVMSIPKGNSALRRVMEETYYHHIYHTVAIEGNTLTLSEIRHILETRYAVPGKSDEEQNEVIGMHAAMKYINTTLVSRIGSVTISDVLEIHRRVLGYVDPVEAGRFRTTQVLVGHHIPPHPQDVEKQMQEFVQWLNSEEAMNLHPVEFAALAHYKLVYIAPFIDGNGRTSRLLMNLILMQAGYPPITIRKEQRSDYYHVLEAANEGDVRPFIRFIAKCTETTLDTLLFATTEYSVALPEAQP
notes: FICD, human, residues 104-445 (only the predicted structured regions were expressed); Used in the crystal structures and as BLI analyte; also called monomeric FICD^L258D-H363A; monomeric FICD; source: E. coli (T7 Express lysY/Iq or M15), purified (Ni-NTA, on-bead Ulp1 cleavage, anion exchange, gel filtration); not shown: His6-Smt3, N-terminal, cleaved
Q: Does B1 bind [1]?
A: binds

Q: Does B1 bind [2]?
A: binds

Q: Does B1 bind [3]?
A: binds

B2: TPR domain oxidised monomeric FICD^D160C-T183C-L258D-H363A-C421S (enzyme, human, UniProt Q9BVA6 104-445, looked up)
chain: LEARAALNQALEMKRQGKREKAQKLFMHALKMDPDFVDALTEFGIFSEEDKDIIQACYLYTRALTISPYHEKALVNRDRCLPLVEEIDQRYFSIIDSKVKKVMSIPKGNSALRRVMEETYYHHIYHTVAIEGNTLTLSEIRHILETRYAVPGKSDEEQNEVIGMHAAMKYINTTLVSRIGSVTISDVLEIHRRVLGYVDPVEAGRFRTTQVLVGHHIPPHPQDVEKQMQEFVQWLNSEEAMNLHPVEFAALAHYKLVYIAPFIDGNGRTSRLLMNLILMQAGYPPITIRKEQRSDYYHVLEAANEGDVRPFIRFIAKSTETTLDTLLFATTEYSVALPEAQP
modifications: intramolecular disulphide bond between Cys160 and Cys183 (TPRox)
notes: FICD, human, residues 104-445, FICD^D160C-T183C-C421S derivative of FICD^L258D-H363A; also called TPRox (monomeric); FICD(TPRox); source: E. coli, purified; oxidised with CuSO4 and 1,10-phenanthroline, further anion exchange and gel filtration; not shown: His6-Smt3, N-terminal, cleaved
Q: Does B2 bind [2]?
A: binds

Q: Does B2 bind [3]?
A: binds

B3: TPR domain oxidised dimeric FICD^D160C-T183C-H363A-C421S (enzyme, human, UniProt Q9BVA6 104-445, looked up)
chain: LEARAALNQALEMKRQGKREKAQKLFMHALKMDPDFVDALTEFGIFSEEDKDIIQACYLYTRALTISPYHEKALVNRDRCLPLVEEIDQRYFSIIDSKVKKVMSIPKGNSALRRVMEETYYHHIYHTVAIEGNTLTLSEIRHILETRYAVPGKSLEEQNEVIGMHAAMKYINTTLVSRIGSVTISDVLEIHRRVLGYVDPVEAGRFRTTQVLVGHHIPPHPQDVEKQMQEFVQWLNSEEAMNLHPVEFAALAHYKLVYIAPFIDGNGRTSRLLMNLILMQAGYPPITIRKEQRSDYYHVLEAANEGDVRPFIRFIAKSTETTLDTLLFATTEYSVALPEAQP
modifications: intramolecular disulphide bond between Cys160 and Cys183 (TPRox)
notes: FICD, human, residues 104-445, FICD^D160C-T183C-C421S derivative of FICD^H363A; also called TPRox (dimeric); FICD(TPRox); source: E. coli, purified; oxidised with CuSO4 and 1,10-phenanthroline, further anion exchange and gel filtration; not shown: His6-Smt3, N-terminal, cleaved
Q: Does B3 bind [3]?
A: binds

B4: FICD^H363A (residues 104-445) (enzyme, human, UniProt Q9BVA6 104-445, looked up)
chain: LEARAALNQALEMKRQGKREKAQKLFMHALKMDPDFVDALTEFGIFSEEDKDIIQADYLYTRALTISPYHEKALVNRDRTLPLVEEIDQRYFSIIDSKVKKVMSIPKGNSALRRVMEETYYHHIYHTVAIEGNTLTLSEIRHILETRYAVPGKSLEEQNEVIGMHAAMKYINTTLVSRIGSVTISDVLEIHRRVLGYVDPVEAGRFRTTQVLVGHHIPPHPQDVEKQMQEFVQWLNSEEAMNLHPVEFAALAHYKLVYIAPFIDGNGRTSRLLMNLILMQAGYPPITIRKEQRSDYYHVLEAANEGDVRPFIRFIAKCTETTLDTLLFATTEYSVALPEAQP
notes: FICD, human, residues 104-445; Used non-deuterated and partially deuterated in SANS, and as BLI analyte; also called dimeric FICD^H363A; dimeric FICD; source: E. coli, purified (Ni-NTA, on-bead Ulp1 cleavage, anion exchange, gel filtration); matchout-deuterated form from E. coli BL21 Star (DE3) in 85% deuterated medium, purified; not shown: His6-Smt3, N-terminal, cleaved
Q: What does the source list for B4?
A: binding result [4]: binds; stoichiometry N [5]: 1 FICD per BiP-AMP (2:2)
